Data as given in US20210380703A1.

molecular target: human Fc (human); experiment: ELISA, negative control

Row | Binder | optical density [OD]
1 | 366_E03 (antibody, V domains shown) VH: EVQLLESGGGLVQPGGSLRLSCAASGFTFDSYGMNWVRQAPGKGLEWVSNINYNGGYKSYADSVKGRFTISRDNSKNTLYLQMNSLRAEDTAVYYCARSATWHDTHLDYWGQGTLVTVSS VL: DIQMTQSPSSLSASVGDRVTITCRASQSILTYLNWYQQKPGKAPKLVIYAATSRHSGVPSRFSGSGSGTDFTLTISSLQPEDFATYYCQQSYSNPLTFGGGTKVEIK | 0.384
2 | 365_E03 (antibody, V domains shown) VH: EVQLLESGGGLVQPGGSLRLSCAASGFTFDSYSMNWVRQAPGKGLEWVSNINYNGGYTGYADSVKGRFTISRDNSKNTLYLQMNSLRAEDTAVYYCARSATWHDTHLDYWGQGTLVTVSS VL: DIQMTQSPSSLSASVGDRVTITCRASQSILTYVNWYQQKPGKAPKLLIYAATSLHSGVPSRFSGSGSGTDFTLTISSLQPEDFATYYCQQSDERPLTFGGGTKVEIK | 0.314
3 | 367_F08 (antibody, V domains shown) VH: EVQLLESGGGLVQPGGSLRLSCAASGFTFSSYGMHWVRQAPGKGLEWVSSINYNSGYTSYADSVKGRFTISRDNSKNTLYLQMNSLRAEDTAVYYCARAATWHDTHLDYWGQGTLVTVSS VL: DIQMTQSPSSLSASVGDRVTITCRASQSILSYVNWYQQKPGKAPKLVIYAATSRASGVPSRFSGSGSGTDFTLTISSLQPEDFATYYCQQSNELPLTFGGGTKVEIK | 0.299
4 | 367_G08 (antibody, V domains shown) VH: EVQLLESGGGLVQPGGSLRLSCAASGFTFDSYGMNWVRQAPGKGLEWVSNINYNGGYKGYADSVKGRFTISRDNSKNTLYLQMNSLRAEDTAVYYCARSATWHDTHLDYWGQGTLVTVSS VL: DIQMTQSPSSLSASVGDRVTITCRASQSILSYLNWYQQKPGKAPKLLIYAATSRASGVPSRFSGSGSGTDFTLTISSLQPEDFATYYCQQSYENPLTFGGGTKVEIK | 0.33
5 | 366_C03 (antibody, V domains shown) VH: EVQLLESGGGLVQPGGSLRLSCAASGFTFDSYGMNWVRQAPGKGLEWVSNINYNGGYTGYADSVKGRFTISRDNSKNTLYLQMNSLRAEDTAVYYCARSATWHDTHLDYWGQGTLVTVSS VL: DIQMTQSPSSLSASVGDRVTITCRASQSILSYLNWYQQKPGKAPKLVIYAATSRASGVPSRFSGSGSGTDFTLTISSLQPEDFATYYCQQSYSNPLTFGGGTKVEIK | 0.274

Next, values leading:

Row | optical density [OD] | Binder
6 | 0.274 | 376_H08 (antibody, V domains shown) VH: EVQLLESGGGLVQPGGSLRLSCAASGFTFDSYGMNWVRQAPGKGLEWVSNINYNGGYKGYADSVKGRFTISRDNSKNTLYLQMNSLRAEDTAVYYCARSATWHDTHLDYWGQGTLVTVSS VL: DIQMTQSPSSLSASVGDRVTITCRASQSILTYLNWYQQKPGKAPKLLIYAATSRHSGVPSRFSGSGSGTDFTLTISSLQPEDFATYYCQQSDSLPLTFGGGTKVEIK
7 | 0.413 | 371_F12 (antibody, V domains shown) VH: EVQLLESGGGLVQPGGSLRLSCAASGFTFDSYSMNWVRQAPGKGLEWVSNINYNGGYKSYADSVKGRFTISRDNSKNTLYLQMNSLRAEDTAVYYCARSATWHDTHLDYWGQGTLVTVSS VL: DIQMTQSPSSLSASVGDRVTITCRASQSIISYLNWYQQKPGKAPKLLIYAATSRASGVPSRFSGSGSGTDFTLTISSLQPEDFATYYCQQSNNLPLTFGGGTKVEIK
8 | 0.437 | 372_H03 (antibody, V domains shown) VH: EVQLLESGGGLVQPGGSLRLSCAASGFTFDSYGMNWVRQAPGKGLEWVSNINYNGGYKSYADSVKGRFTISRDNSKNTLYLQMNSLRAEDTAVYYCARSATWHDTHLDYWGQGTLVTVSS VL: DIQMTQSPSSLSASVGDRVTITCRASQSIITYVNWYQQKPGKAPKLLIYAATSLASGVPSRFSGSGSGTDFTLTISSLQPEDFATYYCQQSYNLPLTFGGGTKVEIK
